Source: the domain aggregation screens of Martell et al. (2025)

assay: soluble fraction after stress (log2 fold change); higher = more stays soluble; pooled small domains, quantitative proteomics; settings: stress: 50 degC
Outline: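 Pooled custom libraries of small protein domains were measured in a high-throughput format, with quantitative proteomics as the read-out. Each library was stressed at 50°C. Aggregation propensity is given as the base-two logarithm of the fold change in how much of each protein stays soluble after the stress. Higher values mean a larger share of the protein remains in solution.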

| Sequence | soluble fraction (log2) |
| --- | --- |
| HMGIKSSASLQEAAEKAQSAYYDIEHSGVATAVDIQRAWVAMVAAQIDAGEKLDSGTITLYERLKTST | 0.0423 |
| HMGQQPPVTEIYKNHDGNKDGLLEAGEVTGSRYARQFPRWDVNGDQKVSPQEVIAFRKRFGIAADGTLL | -0.0225 |
| HMRDSWNEATKEKRYTEAYDALNSALKKTPATPHALSDALWIARELGRTNEEVQRLEWRLYALLTWIS | 0.0708 |
| HMDSAQLARWAATILAQNGRKITPSTMNLFLERVGDDMENIRMELEKLISYTMGSEVVTAEDVKVITTVQ | -0.569 |
| HMDTPVYYYVNGNGVRMRKDASLESDILILLYKGTKVEYVDVKGEWIKVKYNNEIGYIRNDLLSAEMPD | -0.0872 |
| HMNTDIHRLLDEAFVRVDMTPDAQHLKEEIRANLVARVDELEASGVPSADAARRAIAELGDVRELL | 0.17 |
| HMDKIYVYTTRGQVIELPRGSTAIDFAYKIQTDIGNMIIAAIVNDKLVDANYVLHNKDRVKIVTS | -1.92 |
| HMRQPAAVEYSTFLDWVHASQVERVVFEGDTIRGVRVTGEGFVTYSPETDNTALIGELKKSRVQISATAP | -0.153 |
| HMKTLDAFFDQARDAYKKLKKDGDIDNLKVLRNQLQTVRETQGDAVRKKSKEEYRRLVDIIDDIDGLLAAF | -0.102 |
| HMEQQEFIVPHDSEGQRLDLFLVSVLGTHSRSQIRKLIVNGHVKLENRAPRPNLPVRAGESVVVSMPEPT | 0.121 |
| HMKPDAAKREQLIDIALRLFSQQGIARTSLNAIAREAGVTPAMLHYYFNSREQLLDVMIEERFL | -3.09 |
| HMPRKLDDQLQEQIRYLKSNYPRMSAAGIFRQLQDNGSIKHGDVSESTINRYVNLLSIEMKTTT | -0.223 |
| HMDDATDLPYQEFRTQVSDGQVKIAQFNNNTGKITFESISGDKFKTSGPLELSSDDERLFLENIEDFKFFT | 0.104 |
| HMAAAKDVMDWQNAIRGLTDAKGKPYSPTYLKTVHNQLSALFNHAVRYYGLQVNPAAKAGNMGVEE | -0.0939 |
| HMENIEVDFGVGDTVSVIGGAWKDTVGVVQAMNPNKQSLTINVELFGRETPVEISFTDVQKM | -0.0126 |
| HMGRENGTVKWFNTSKGFGFITRDDGGDVFVHFRSIQGEGHRALQEGQRVSYVVANRDKGLQAEDVTILN | 0.131 |
| HMLGYQALASAFRSKVEAGIWPIGEAIPSEARLSKEYGVAVGTIRQAIAELAEEGILIKRHGKSTMVSSG | -0.873 |
| HMDKMIFFKNKENNDDNQLVKIGALLIHAAKIDEDFSQEEENIIKQTLINFGAGNKNINEIIEKAKKME | 0.389 |
| HMENPLVEVVVPVLNEERILKANIETLHHFLRTQPGFNFRITIADNGSTDKTQAIANDLTNSHAVIRV | -0.12 |
| HMAELVISVKADGTIHYQDRQLTKEALAAVLETRPEALLNLYVDEKAPFEAFVGVVDIARLKRGGHFVIST | -0.632 |
| HMKLSIEDLAAELIRKIEAGDIGNEQGKMPSERELLAIYPVSRYTLRQALNKLSKMGWIYQMQGRGSYIRF | -1.35 |
| HMAKTALEQAQAMVAAYVAAEQQILLGKEVRMGGPGIDRWLRFEDLQEVRAGRKEWESTVTRLQNTAA | -0.404 |
| HMLSAPMPGTVLEVHVKEGQRVREGQTLVVMEAMKMEHRVQAPRAGVVTKLHYSEGDRVDVGAILVEIG | 0.0919 |
| HMQNSPVFAASDIEDIRVGMTVEHQRFGQGRVMSIEGNGPNKKTTVLFEGIGEKQLLLQYAKLKIV | 0.157 |
| HMDWNPVRDITAHQVLAILQATHIRAPTVAAEAKRTLSSIFQFAVATLRADIDPVWPVRNALPKNKT | 0.00605 |
| HMLLRSEDAIELGKSQLEDALAPYKIETLDTGTVQQLLDSLKLNSLESLYQEIGLGNRMSTIIAHRLLGE | -0.156 |
| HMPEPLTARETEVLRLLSGGYSNREIAAAMFLAEGTIKNHVSAVLLKLGVRDRTRAVLRGLELGLIQ | -1.81 |
| HMSQNTHTIPSREDILGIFRSVNAPLDPQSLGKTLQVHADSMDVLVRRLKAMERDGQLKSDASGVFSLAD | 0.119 |

| Sequence | soluble fraction (log2) |
| --- | --- |
| HMRPAAELGLPHAPKHFIQYLTEDDRPQVLKDVDYEGGMGVSIGRLREDSIFDWKFVGLAHNTL | 0.062 |
| HMKSLLTHAEEFVRNNNGRWMLAETSSKESYSSKQNFYLRNNYSIISEIRDFYSVGDNLLVFGKFFT | 0.0992 |
| HMILNWSEYTRSEIIELARDLSPDKYMIIDDINTYSKMKLLPSQAFIAEMFGSLRQFQKEAWGRE | -1.88 |
| HMLLAPLRLGAAPDIKAQAPLATILARHNGEMEAKDLWQRFGGEIDAFYLQLKTEVAHGWIVEPEPA | -0.816 |
| HMTGSTSVAQVSTPSGSLNLRAYASTSARVLLQIPEYAFVTVYNRGATWSYVSYNGVSGYVMSVYLSFGG | -1.01 |
| HMDSDRAARLSSLTPQQFRVLRMVSEGQLNKQIAYQLNISEATVKSHVSAILQKLGVNSRTQAVILATRLD | -2.01 |
| HMENNNIAFSKFLEEVDSGRVVQVEIQGNNISGTLSDGSKFKTYSPNYPDLVSKLSEKNVSIIASPV | 0.115 |
| HMGRSYTIKSGDTLWAIATRYYGNGAQYSKIYNANKGTIESVAKSRGFRSSQNGHWIFPGTSITI | -0.207 |
| HMTEFDVIMKSFGSEKIKVIKEVRAITGLGLAEAKALVEGVPAKIKEQVSKDDAEALKKQLEAVGAEVEL | 0.0379 |
| HMTTRQREALLDYLSRHPDQPLTVREIAAGVEPDGVSLSAVYRNLAELEAAGLIRRESRPGSREAVVQYV | 0.049 |
| HMAVPMTPGELVGSRVRVLWWKDGRGEVVALARGHQATLPARSEEPLRTGADAVVLEADEGTLVVTS | -0.0203 |
| HMPTYEEAKTYLKAAFEHIVAAGRDVGELVEFAFAKSGDAVAPYLRRFLSDVHEGRITIQGLTESAKLAV | 0.206 |
| HMQPYTYNPNFLSDYRAYSLGIPLEAYDKLVQFRASGSFVNSMSDFQKITGVSDSLLAVLHSKFRYPK | -0.884 |
| HMSASSDATRQRVLRAAEQLFGAKGVENVSLREMTTLAGVNLAAVNYHFGSKDALAEAVFEALSER | 0.41 |
| HMDLIISDIRMPEMRGDDFLEWIKANELFKHIPVIMLSSEDSTTERIRLLEIGAEDYIVKPFNPMELKIR | -0.505 |
| HMTNNFIVTWRNYNEEVLEIDVNVKKGSMPKYNGKTPEREGYQFVGWDPEITEVTKDITYVAQFM | -0.415 |
| HMKKYEFIEDLPGVGPATAQKLRDLGYHTVESLAMATARELEPIGVGEKKAFSMIEAARSAIGFS | 0.283 |
| HMQSLSDQVFFYLKERIINNEMVPGSIISIEKLTSEFGISNTPVREAIVRLAGLDLVTIHRNKNITVS | -2.39 |
| HMTVLDYNENVLSKVMNAAEINDSDKEAFIAFAKDYNSDDNLYLKKEELETAAGAWNARNVE | 0.358 |
| HMNVKVYATIDGDNFKVSGLKPGSNVRVYSSNGSAVFEKKAGDSEMIIPAGAWTKGIYVISADDQSIKVT | -0.109 |
| HMSQEILSNQSIKDMIELGFEEQTIIDKIQTSTSDFDTTIEELKALKQLGASPTILSAMIKSIKK | 0.285 |
| HMSLNQRIKEARIKMGYTQEQLGNLIGVAKTTISGYEKNREPDAATIGLIIDALKVDANFLFQ | -1.62 |
| HMSLPALSAEEQKIVDALHGTPKGVDDIIAETGISSGALLRSLTMLELKKVIVRLPGNRIAPK | -0.128 |
| HMAEPRVQEVYFEFDGKQVEAGQVVSLIEQAYKNEGHQIGRIKDLKVYINSEEGKAYYVINGDDGEGKYIE | 0.0517 |
| HMGMIRFSKEEQMLMMLYSPGSRLGLIAELESMKLQLNSRERKLRNLAESVLKKLEQITDEEFMQFDF | -1.31 |
| HMNSHQNELDNALTEAHTASRRLLEGTDEYLDLSSQPAYIRRLQHLLAQKYNLGSLSSGVEPNRHIRLLQ | -0.143 |
| HMDDYRSLRGQEKAAIFLMSLSQEQAAKIFANLDDEEIKEISQAMSSLGTVGSEIIERLFVEFAEQVSS | -1.06 |
